This passage reports Kd and stoichiometry N results from PMC11099015.

pKd: −log10 of the molar value. Read-outs that look alike come from different tables or passages of the source.

The target of assay [1] is SETD3(1−498) (UniProt Q86TU7). Briefly: BLI.
The target in assay [2] is SETD3(1−498) (UniProt Q86TU7). Kind of assay: AUC.

For orientation: pKd means the negative decadic logarithm of the Kd, by convention in mol/L. Regarding CVB3 2A C107A (enzyme), in the assay with SETD3(1−498) [1], the pKd is 7.93.

The term stoichiometry N denotes the number of molecules, sites or subunits per partner or assembly. In the case of EV71 2A C110A (enzyme), the stoichiometry N with SETD3(1−498) [2] came to 1. Also, the pKd with SETD3(1−498) [1] was 7.64.

In turn, EV71 2A C110A K70A; H71A; Y72A gave a pKd with SETD3(1−498) [1] (2A KHY(70-72)AAA at 12.5, 6.25, 3.13, 1.56 and 0.78 µM) of 5.76.
